# Laboratory results as given in the RNAGym collection of RNA variant scans (doi:10.7554/elife.80360).
# B1: HDV Ribozyme (parent)
# chain: GGCCGGCAUGGUCCCAGCCUCCUCGCUGGCGCCGGCUGGGCAACAUUCCGAGGGGACCGUCCCCUCGGUAAUGGCGAAUGGGACCCA
# Variants of: B1
# Experiment: self-cleavage, relative activity (ratio to wild type); higher = more cleavage; co-transcriptional
row,Variant,self-cleavage
1,C36G C58U,0.128
2,G11U C61U,0.443
3,A42U U46G,0.287
4,G2A G68U,0.0645
5,G25U G39A,0.0963
6,C84U C85U,0.604
7,G1A G28A,0.0332
8,C3G G67C,0.524
9,G40A G55A,0.882
10,A8U U23G,0.415
11,U47C G55A,0.923
12,A45C G82U,0.397
13,C33U U37A,0.17
14,C22U G39A,0.185
15,C14U U27A,1.03
16,G55U G76C,1.08
17,C57U A70G,0.967
18,C15G C84U,0.302
19,A16C G73C,0.217
20,G25C C62A,0.18
21,U65C G82A,0.554

row,Variant,self-cleavage
1,C58G C66U,1.01
2,U20A G54C,0.196
3,U37G U65C,0.123
4,C36A G67C,0.208
5,C18U U47A,0.293
6,C19G A70G,0.104
7,C19U G53C,0.0875
8,U27G A43C,0.166
9,G34A U79C,0.0773
10,A51C A78G,0.751
11,C15A C18A,0.115
12,C22G A51G,0.104
13,C41A C58A,0.831
14,U47G G59C,1.16
15,G2A G39U,0.0305
16,C44G C75G,0.256
17,G17U A78U,0.0739
18,U47A A51G,0.902
19,G31C U47C,0.499
20,G55U A77U,0.453
21,C30A C32A,0.0627

row,Variant,self-cleavage
1,A56G C84A,1.16
2,U20G C26A,0.32
3,U20G C44A,0.262
4,U9G U46G,0.646
5,U9G C30U,0.853
6,G39C G59U,0.147
7,C66A G73C,0.277
8,C49G C86U,0.831
9,U46G C84U,0.287
10,A16G G53C,1.11
11,U46C C66U,0.886
12,G10U G38C,0.058
13,U37C C57U,0.875
14,U23C C86G,0.95
15,C4U G54C,0.795
16,G1C U9G,0.104
17,C3A G6U,0.0492
18,U37A G39C,0
19,C85U A87C,0.933
20,C64A A87C,0.779
21,G17U G73A,0.233

row,Variant,self-cleavage
1,C13U G34U,0.0268
2,C19A A77U,0.145
3,C49U C86A,0.793
4,G1C C58G,0.199
5,G40U U60C,0.723
6,G31U A77G,0.231
7,G6C U9C,0.391
8,G5A C14U,0.119
9,C48A C84G,0.727
10,A51G A56G,1.08
11,G10U C22A,0.0941
12,G50C U69C,1.07
13,C19G C62A,0.0264
14,C48G G81U,0.424
15,C13G C58U,0.0898
16,A42U G50U,0.727
17,A43C C49A,0.172
18,G40A U60A,1
19,C61G,0.986
20,G54C G81U,0.19
